The target in assay [1] is T1, SARS-CoV-2 main protease (M^pro), wild type (SARS-CoV-2, UniProt P0DTD1). Put plainly: cell-based or functional assay.
Assay [2] concerns the target T1, SARS-CoV-2 main protease (M^pro), wild …. Kind of assay: […].

Where no end group is shown, it is not given here.

For the molecule YLQYAVLRHKRREC (also: cyclic, mode of cyclization not given here) [cyclic peptide 1], in assay [1], the “IC50, inhibition of M^pro proteolytic activity (FRET substrate cleavage)” value turned out to be 0.07 µM. The molecule also came in with an inhibition constant Ki in assay [2] of 0.014 µM.

(Values after publication doi:10.1101/2021.08.23.457419 (bioRxiv, 2021).)
